According to PMC10686484, “Cas9 is mostly orthogonal to human systems of DNA break sensing and repair”:

Legend:
Cas9 = Cas9 (Streptococcus pyogenes, UniProt Q99ZW2 1-1368); assay: EMSA; preformed 1 complex with sgRNA, no Mg2+; reported as apparent Kd (EC50); EMSA: 50 mM Tris-HCl pH 7.5, 100 mM NaCl, 1 mM DTT, 0.1 mg/ml BSA (oligo dsDNA only), 10 mM MgCl2 if indicated (always for plasmid), 4 C, 30 min; 10 nM dsDNA or 10 ng/ul plasmid; conditions: protein: recombinant; label: 5'-32P on DNA2 (target strand); guide + blunt 35 bp duplex
PARP1 = PARP1 (human, UniProt P09874 1-1014); assay: EMSA; no NAD+, no Mg2+; apparent Kd (EC50), from loss of free DNA; EMSA: 50 mM Tris-HCl pH 7.5, 100 mM NaCl, 1 mM DTT, 0.1 mg/ml BSA (oligo dsDNA only), 10 mM MgCl2 if indicated (always for plasmid), 4 C, 30 min; 10 nM dsDNA or 10 ng/ul plasmid; conditions: protein: recombinant; label: 5'-32P on DNA2 (target strand); blunt 35 bp
PARP2 = PARP2 (murine, UniProt O88554 1-559); assay: as above; conditions: protein: recombinant; label: 5'-32P on DNA2 (target strand); blunt 35 bp
Ku antigen (Ku70/80) = Ku antigen (Ku70/80) (human, UniProt P12956;P13010 2-609;2-732); assay: EMSA; EMSA: 50 mM Tris-HCl pH 7.5, 100 mM NaCl, 1 mM DTT, 0.1 mg/ml BSA (oligo dsDNA only), 10 mM MgCl2 if indicated (always for plasmid), 4 C, 30 min; 10 nM dsDNA or 10 ng/ul plasmid; conditions: protein: native; copies: 1;1; label: 5'-32P on DNA2 (target strand); blunt 35 bp
YB1 (1-219) = YB1 (1-219) (human, UniProt P67809 1-219); assay: EMSA; 10 mM Mg2+; several complexes; EMSA: 50 mM Tris-HCl pH 7.5, 100 mM NaCl, 1 mM DTT, 0.1 mg/ml BSA (oligo dsDNA only), 10 mM MgCl2 if indicated (always for plasmid), 4 C, 30 min; 10 nM dsDNA or 10 ng/ul plasmid; conditions: protein: recombinant; label: 5'-32P on DNA2 (target strand); blunt 35 bp
RPA [1] = molecular target: T1, RPA (human, UniProt P27694;P15927;P35244 1-616;1-270;1-121); assay: EMSA; 10 mM Mg2+; reported as Kd; EMSA: 50 mM Tris-HCl pH 7.5, 100 mM NaCl, 1 mM DTT, 0.1 mg/ml BSA (oligo dsDNA only), 10 mM MgCl2 if indicated (always for plasmid), 4 C, 30 min; 10 nM dsDNA or 10 ng/ul plasmid; conditions: protein: recombinant; copies: 1;1;1; label: 5'-32P on DNA2 (target strand); blunt 35 bp
RPA [2] = molecular target: T1, RPA; assay: EMSA; no Mg2+; reported as Kd; EMSA: 50 mM Tris-HCl pH 7.5, 100 mM NaCl, 1 mM DTT, 0.1 mg/ml BSA (oligo dsDNA only), 10 mM MgCl2 if indicated (always for plasmid), 4 C, 30 min; 10 nM dsDNA or 10 ng/ul plasmid; conditions: protein: recombinant; copies: 1;1;1; label: 5'-32P on DNA2 (target strand); blunt 35 bp

T1 sequence (P27694 whole entry, chain 1 of 3): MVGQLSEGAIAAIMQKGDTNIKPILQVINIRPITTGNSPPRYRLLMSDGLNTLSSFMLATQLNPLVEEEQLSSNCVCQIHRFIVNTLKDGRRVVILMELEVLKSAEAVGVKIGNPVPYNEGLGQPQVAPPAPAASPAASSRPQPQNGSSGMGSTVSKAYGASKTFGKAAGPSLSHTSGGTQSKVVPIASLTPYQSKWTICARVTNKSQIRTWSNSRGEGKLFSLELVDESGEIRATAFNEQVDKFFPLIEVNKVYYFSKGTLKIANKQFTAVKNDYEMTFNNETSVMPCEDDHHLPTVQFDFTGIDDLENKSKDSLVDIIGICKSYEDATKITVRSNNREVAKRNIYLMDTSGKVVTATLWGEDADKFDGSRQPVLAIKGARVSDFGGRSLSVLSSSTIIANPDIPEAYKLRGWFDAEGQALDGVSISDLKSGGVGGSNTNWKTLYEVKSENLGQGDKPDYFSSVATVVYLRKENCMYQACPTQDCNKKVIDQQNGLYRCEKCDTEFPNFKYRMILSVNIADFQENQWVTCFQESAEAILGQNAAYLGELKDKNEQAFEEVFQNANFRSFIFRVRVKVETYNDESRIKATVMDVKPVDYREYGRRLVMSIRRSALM
T1 sequence (P15927 whole entry, chain 2 of 3): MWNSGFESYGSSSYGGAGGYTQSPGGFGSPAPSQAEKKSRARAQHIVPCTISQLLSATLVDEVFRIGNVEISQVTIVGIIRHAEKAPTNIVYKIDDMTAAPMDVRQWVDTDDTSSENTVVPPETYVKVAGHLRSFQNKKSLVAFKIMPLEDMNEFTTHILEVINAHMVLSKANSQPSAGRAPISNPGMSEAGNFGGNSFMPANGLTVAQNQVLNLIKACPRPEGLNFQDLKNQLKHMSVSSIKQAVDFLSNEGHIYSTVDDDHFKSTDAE
T1 sequence (P35244 whole entry, chain 3 of 3): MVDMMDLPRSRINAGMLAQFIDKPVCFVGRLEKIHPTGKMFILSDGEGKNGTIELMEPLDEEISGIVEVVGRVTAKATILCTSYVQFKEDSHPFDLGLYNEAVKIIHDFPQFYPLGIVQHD
Chain of Ku antigen (Ku70/80) (P12956 2-609, chain 1 of 2): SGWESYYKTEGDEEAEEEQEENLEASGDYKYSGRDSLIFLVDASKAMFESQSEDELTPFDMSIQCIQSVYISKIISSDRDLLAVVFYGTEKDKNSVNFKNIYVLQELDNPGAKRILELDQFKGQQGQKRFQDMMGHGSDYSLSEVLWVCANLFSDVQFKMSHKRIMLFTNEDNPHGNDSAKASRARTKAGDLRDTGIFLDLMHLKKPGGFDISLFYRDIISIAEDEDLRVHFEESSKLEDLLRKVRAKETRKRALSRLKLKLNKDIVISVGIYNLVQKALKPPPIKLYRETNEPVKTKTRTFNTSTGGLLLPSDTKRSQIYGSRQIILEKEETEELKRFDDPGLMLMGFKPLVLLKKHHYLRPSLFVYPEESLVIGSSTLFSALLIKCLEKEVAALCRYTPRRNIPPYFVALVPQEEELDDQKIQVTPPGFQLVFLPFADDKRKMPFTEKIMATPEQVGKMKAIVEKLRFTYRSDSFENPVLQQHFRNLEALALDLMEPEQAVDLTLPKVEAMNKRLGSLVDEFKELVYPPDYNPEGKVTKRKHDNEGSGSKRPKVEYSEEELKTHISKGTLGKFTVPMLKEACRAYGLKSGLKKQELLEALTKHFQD
Chain of Ku antigen (Ku70/80) (P13010 2-732, chain 2 of 2): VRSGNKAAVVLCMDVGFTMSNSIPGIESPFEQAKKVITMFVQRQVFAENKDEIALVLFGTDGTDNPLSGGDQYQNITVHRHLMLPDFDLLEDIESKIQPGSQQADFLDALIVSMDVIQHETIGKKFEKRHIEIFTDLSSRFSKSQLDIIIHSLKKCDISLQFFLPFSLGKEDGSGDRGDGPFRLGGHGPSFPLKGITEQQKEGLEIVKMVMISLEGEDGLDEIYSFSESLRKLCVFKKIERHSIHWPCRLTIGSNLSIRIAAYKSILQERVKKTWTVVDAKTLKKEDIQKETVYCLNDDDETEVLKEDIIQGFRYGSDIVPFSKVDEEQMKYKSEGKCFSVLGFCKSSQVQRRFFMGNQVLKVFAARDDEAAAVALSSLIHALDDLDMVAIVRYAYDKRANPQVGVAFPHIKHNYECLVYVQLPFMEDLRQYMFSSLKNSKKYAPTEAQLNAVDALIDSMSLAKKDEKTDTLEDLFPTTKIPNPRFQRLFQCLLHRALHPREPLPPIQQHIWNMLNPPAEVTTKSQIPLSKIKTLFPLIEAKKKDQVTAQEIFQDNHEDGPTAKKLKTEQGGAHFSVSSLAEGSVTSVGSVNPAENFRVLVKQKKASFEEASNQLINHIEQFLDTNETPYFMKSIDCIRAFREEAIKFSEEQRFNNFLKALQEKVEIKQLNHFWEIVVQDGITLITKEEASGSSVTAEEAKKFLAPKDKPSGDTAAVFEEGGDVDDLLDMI
Chain of PARP1 (P09874 whole entry): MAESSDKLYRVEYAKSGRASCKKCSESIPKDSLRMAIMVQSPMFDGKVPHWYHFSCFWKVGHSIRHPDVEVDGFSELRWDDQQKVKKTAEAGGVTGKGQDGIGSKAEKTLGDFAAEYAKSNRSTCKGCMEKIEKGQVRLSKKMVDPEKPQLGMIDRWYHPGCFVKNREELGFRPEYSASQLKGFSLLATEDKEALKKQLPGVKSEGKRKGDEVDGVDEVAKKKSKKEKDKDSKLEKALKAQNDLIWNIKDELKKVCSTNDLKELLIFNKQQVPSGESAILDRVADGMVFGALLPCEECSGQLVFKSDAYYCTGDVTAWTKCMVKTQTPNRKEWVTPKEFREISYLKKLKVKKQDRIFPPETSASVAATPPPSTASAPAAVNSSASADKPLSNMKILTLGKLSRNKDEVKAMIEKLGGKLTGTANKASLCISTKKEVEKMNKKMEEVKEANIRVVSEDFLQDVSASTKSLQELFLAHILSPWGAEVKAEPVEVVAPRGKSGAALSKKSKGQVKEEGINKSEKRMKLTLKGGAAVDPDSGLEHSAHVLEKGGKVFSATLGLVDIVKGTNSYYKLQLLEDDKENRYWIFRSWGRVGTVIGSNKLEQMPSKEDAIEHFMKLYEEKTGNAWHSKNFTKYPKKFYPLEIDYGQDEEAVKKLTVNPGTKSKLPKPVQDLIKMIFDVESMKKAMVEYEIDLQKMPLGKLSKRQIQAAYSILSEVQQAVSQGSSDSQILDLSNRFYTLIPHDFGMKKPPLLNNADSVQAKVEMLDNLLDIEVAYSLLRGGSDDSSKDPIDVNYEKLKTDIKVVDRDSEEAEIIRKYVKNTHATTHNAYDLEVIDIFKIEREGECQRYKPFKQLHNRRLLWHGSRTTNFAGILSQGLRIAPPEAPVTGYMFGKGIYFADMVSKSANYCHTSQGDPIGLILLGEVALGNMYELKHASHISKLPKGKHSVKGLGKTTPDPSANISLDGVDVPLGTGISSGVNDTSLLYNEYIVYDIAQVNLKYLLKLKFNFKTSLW
Chain of Cas9 (Q99ZW2 whole entry): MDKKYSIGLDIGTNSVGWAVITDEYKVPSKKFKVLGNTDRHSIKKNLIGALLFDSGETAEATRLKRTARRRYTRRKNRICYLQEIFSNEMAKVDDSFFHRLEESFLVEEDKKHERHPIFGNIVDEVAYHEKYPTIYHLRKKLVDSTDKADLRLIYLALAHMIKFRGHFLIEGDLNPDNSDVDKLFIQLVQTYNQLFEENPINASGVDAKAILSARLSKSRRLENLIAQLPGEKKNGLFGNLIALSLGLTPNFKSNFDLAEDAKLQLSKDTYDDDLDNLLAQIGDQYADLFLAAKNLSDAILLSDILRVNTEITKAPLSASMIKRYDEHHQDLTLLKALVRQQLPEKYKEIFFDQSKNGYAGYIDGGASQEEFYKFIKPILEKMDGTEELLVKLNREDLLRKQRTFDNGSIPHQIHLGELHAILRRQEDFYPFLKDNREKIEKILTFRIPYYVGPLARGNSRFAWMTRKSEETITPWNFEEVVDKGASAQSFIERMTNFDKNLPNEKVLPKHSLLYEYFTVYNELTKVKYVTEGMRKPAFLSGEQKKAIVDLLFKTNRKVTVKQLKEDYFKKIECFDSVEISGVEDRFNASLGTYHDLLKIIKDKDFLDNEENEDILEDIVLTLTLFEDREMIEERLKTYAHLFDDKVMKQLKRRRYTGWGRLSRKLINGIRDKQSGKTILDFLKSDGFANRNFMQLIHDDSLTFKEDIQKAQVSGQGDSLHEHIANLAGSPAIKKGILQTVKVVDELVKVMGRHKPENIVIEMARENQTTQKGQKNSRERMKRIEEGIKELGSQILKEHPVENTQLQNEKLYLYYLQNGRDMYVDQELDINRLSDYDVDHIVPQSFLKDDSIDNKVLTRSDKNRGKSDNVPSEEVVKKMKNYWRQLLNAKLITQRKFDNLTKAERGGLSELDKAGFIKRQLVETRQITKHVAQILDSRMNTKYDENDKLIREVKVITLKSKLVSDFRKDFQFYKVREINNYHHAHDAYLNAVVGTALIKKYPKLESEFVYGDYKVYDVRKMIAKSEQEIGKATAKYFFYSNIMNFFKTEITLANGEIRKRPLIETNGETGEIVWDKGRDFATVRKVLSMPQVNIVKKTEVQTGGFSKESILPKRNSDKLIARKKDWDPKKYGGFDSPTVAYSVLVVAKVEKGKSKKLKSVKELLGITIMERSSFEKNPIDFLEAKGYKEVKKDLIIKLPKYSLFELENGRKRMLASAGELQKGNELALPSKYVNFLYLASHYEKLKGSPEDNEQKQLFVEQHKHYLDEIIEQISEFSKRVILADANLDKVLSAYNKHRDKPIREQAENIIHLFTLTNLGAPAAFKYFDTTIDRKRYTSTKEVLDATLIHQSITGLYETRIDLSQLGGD
Chain of YB1 (1-219) (P67809 1-219): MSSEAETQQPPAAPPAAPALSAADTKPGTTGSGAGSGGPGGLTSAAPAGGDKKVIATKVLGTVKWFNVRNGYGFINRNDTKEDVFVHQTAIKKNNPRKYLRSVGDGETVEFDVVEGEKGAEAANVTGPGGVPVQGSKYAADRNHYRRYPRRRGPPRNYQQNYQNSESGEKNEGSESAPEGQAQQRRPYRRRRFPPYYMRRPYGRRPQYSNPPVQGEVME

| Binder | apparent K (half saturation) (Cas9) [nM] | apparent K (half saturation) (PARP1) [nM] | apparent K (half saturation) (PARP2) [nM] | binding result (Ku antigen (Ku70/80)) | binding result (YB1 (1-219)) | apparent K (half saturation) (RPA [1]) [nM] | apparent K (half saturation) (RPA [2]) [nM] |
| --- | --- | --- | --- | --- | --- | --- | --- |
| sgRNA (pLK1) + dsDNA1/2* (mixed) RNA: GGAUAACUCAAUUUGUAAAAAAGUUUUAGAGCUAGAAAUAGCAAGUUAAAAUAAGGCUAGUCCGUUAUCAACUUGAAAAAGUGGCACCGAGUCGGUGCUUUU DNA 1: CTGATAACTCAATTTGTAAAAAATGGTACTGAGCA DNA 2: TGCTCAGTACCATTTTTTACAAATTGAGTTATCAG | 7.7 ± 0.4 | – | – | – | – | – | – |
| dsDNA1/2* (dsDNA) DNA 1: CTGATAACTCAATTTGTAAAAAATGGTACTGAGCA DNA 2: TGCTCAGTACCATTTTTTACAAATTGAGTTATCAG | – | 53 ± 5 | 200 ± 16 | binds | binds | 125 ± 40 | 90 ± 20 |
